Measurements as given in the supplement of paper PMC9112550, “Optimization of the antimicrobial peptide Bac7 by deep mutational scanning” (BMC Biology, 2022).

System: Escherichia coli TOP10
Experiment: shrunken log2 fold change of peptide-encoding DNA abundance (4.5 h post-induction vs induction); higher = less antimicrobial activity (less host growth inhibition)
Settings: time post-induction: 4.5 h; library: site-saturation at positions 5, 18, 19, 20
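Further: peptides expressed intracellularly from a pBAD plasmid library in pooled LB shake-flask culture, induced with 0.3% L-arabinose, DNA abundance read by NGS, three biological replicates, DESeq2 with apeglm shrinkage.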

Sequence | shrunken log2 fold change
RRIRCRPPRLPRPRPRPFPTPRP | -0.249
RRIRFRPPRLPRPRPRPDNKPRP | -0.853
RRIRNRPPRLPRPRPRPMWYPRP | -0.0267
RRIRLRPPRLPRPRPRPHQMPRP | -0.199
RRIRVRPPRLPRPRPRPKFFPRP | -0.0182
RRIRARPPRLPRPRPRPISAPRP | 0.294
RRIRYRPPRLPRPRPRPHCLPRP | -0.0757
RRIRNRPPRLPRPRPRPQIQPRP | -0.214
RRIRDRPPRLPRPRPRPWRRPRP | 0.0906
RRIRTRPPRLPRPRPRPMFAPRP | -0.0818
RRIRVRPPRLPRPRPRPVLCPRP | 0.0228
RRIRIRPPRLPRPRPRPFHDPRP | -0.374
RRIRMRPPRLPRPRPRPSIKPRP | -0.0928
RRIRIRPPRLPRPRPRPDMEPRP | 0.0763
RRIRFRPPRLPRPRPRPVSLPRP | -0.00718
RRIRLRPPRLPRPRPRPLAPPRP | 0.274
RRIRMRPPRLPRPRPRPHMRPRP | 0.509
RRIRSRPPRLPRPRPRPIPNPRP | -0.432
RRIRCRPPRLPRPRPRPWGQPRP | -0.00973
RRIRTRPPRLPRPRPRPYTTPRP | -0.718
RRIRMRPPRLPRPRPRPAYGPRP | -0.00861
RRIRYRPPRLPRPRPRPVRAPRP | 0.774
RRIRIRPPRLPRPRPRPFAPPRP | 1.3
RRIRWRPPRLPRPRPRPVQEPRP | 0.342
RRIRARPPRLPRPRPRPFTPPRP | -0.0978

Sequence | shrunken log2 fold change
RRIRSRPPRLPRPRPRPMAAPRP | 1.8
RRIRTRPPRLPRPRPRPMVNPRP | 0.0818
RRIRSRPPRLPRPRPRPGQNPRP | 0.323
RRIRNRPPRLPRPRPRPAHIPRP | 0.00258
RRIRQRPPRLPRPRPRPSFRPRP | -0.578
RRIRPRPPRLPRPRPRPTYCPRP | 0.00402
RRIRKRPPRLPRPRPRPHWNPRP | -0.296
RRIRCRPPRLPRPRPRPHCAPRP | -0.254
RRIRTRPPRLPRPRPRPLMLPRP | -0.297
RRIRIRPPRLPRPRPRPKECPRP | 0.00902
RRIRYRPPRLPRPRPRPDERPRP | 0.0108
RRIRERPPRLPRPRPRPITVPRP | 0.0995
RRIRGRPPRLPRPRPRPMMIPRP | -0.0387
RRIRPRPPRLPRPRPRPVCVPRP | 0.146
RRIRARPPRLPRPRPRPPGFPRP | 0.59
RRIRGRPPRLPRPRPRPTFSPRP | 0.162
RRIRFRPPRLPRPRPRPLDVPRP | -0.153
RRIRRRPPRLPRPRPRPMGMPRP | 0.747
RRIRDRPPRLPRPRPRPAPMPRP | 0.445
RRIRMRPPRLPRPRPRPCEMPRP | 0.084
RRIRTRPPRLPRPRPRPAQGPRP | 0.228
RRIRTRPPRLPRPRPRPWFPPRP | -0.735
RRIRKRPPRLPRPRPRPTYHPRP | -0.283
RRIRDRPPRLPRPRPRPSAWPRP | 0.123
RRIRMRPPRLPRPRPRPDGIPRP | 1.33

Sequence | shrunken log2 fold change
RRIRPRPPRLPRPRPRPCPVPRP | -0.0845
RRIRTRPPRLPRPRPRPGCNPRP | 0.0386
RRIRCRPPRLPRPRPRPRLRPRP | 0.925
RRIRKRPPRLPRPRPRPTWPPRP | 0.766
RRIRFRPPRLPRPRPRPYYEPRP | -0.231
RRIRRRPPRLPRPRPRPYGKPRP | -0.813
RRIRMRPPRLPRPRPRPAQQPRP | 0.612
RRIRHRPPRLPRPRPRPPMKPRP | -0.278
RRIRHRPPRLPRPRPRPYSAPRP | 0.0254
RRIRNRPPRLPRPRPRPAKQPRP | -0.0201
RRIRARPPRLPRPRPRPEAQPRP | 1.66
RRIRMRPPRLPRPRPRPYAQPRP | -0.291
RRIRLRPPRLPRPRPRPADPPRP | 0.0111
RRIRYRPPRLPRPRPRPVLAPRP | -0.037
RRIRVRPPRLPRPRPRPNPFPRP | -0.104
RRIRCRPPRLPRPRPRPFDTPRP | -0.192
RRIRIRPPRLPRPRPRPLYVPRP | -1.06
RRIRNRPPRLPRPRPRPCYNPRP | -0.124
RRIRVRPPRLPRPRPRPFGAPRP | 0.258
RRIRMRPPRLPRPRPRPHRDPRP | 0.169
RRIRQRPPRLPRPRPRPQTDPRP | 0.00346
RRIRTRPPRLPRPRPRPHQVPRP | -0.0174
RRIRNRPPRLPRPRPRPCTHPRP | -0.147
RRIRGRPPRLPRPRPRPVMEPRP | 0.546
RRIRLRPPRLPRPRPRPNSNPRP | -0.335

Sequence | shrunken log2 fold change
RRIRCRPPRLPRPRPRPAGVPRP | 0.259
RRIRSRPPRLPRPRPRPGWQPRP | -0.339
RRIRPRPPRLPRPRPRPPLEPRP | 0.179
RRIRLRPPRLPRPRPRPLECPRP | 0.184
RRIRKRPPRLPRPRPRPGMLPRP | 0.542
RRIRLRPPRLPRPRPRPKHWPRP | 0.31
RRIRKRPPRLPRPRPRPMREPRP | 1.4
RRIRYRPPRLPRPRPRPVAIPRP | -0.702
RRIRDRPPRLPRPRPRPTLLPRP | 0.758
RRIRSRPPRLPRPRPRPKKVPRP | -0.00648
RRIRNRPPRLPRPRPRPAPCPRP | 0.0656
RRIRWRPPRLPRPRPRPWLKPRP | 0.0275
RRIRNRPPRLPRPRPRPWPDPRP | 0.646
RRIRIRPPRLPRPRPRPHIYPRP | 0.13
RRIRKRPPRLPRPRPRPNDKPRP | -0.0282
RRIRLRPPRLPRPRPRPRLPPRP | 0.149
RRIRDRPPRLPRPRPRPICFPRP | 0.227
RRIRRRPPRLPRPRPRPYHAPRP | -0.0669
RRIRCRPPRLPRPRPRPTACPRP | -0.0786
RRIRIRPPRLPRPRPRPHVRPRP | 0.031
RRIRNRPPRLPRPRPRPKKEPRP | 0.0493
RRIRERPPRLPRPRPRPNSFPRP | -0.249
RRIRRRPPRLPRPRPRPFWEPRP | -0.0438
RRIRARPPRLPRPRPRPQNPPRP | 0.0626
RRIRMRPPRLPRPRPRPTDEPRP | 0.116

Sequence | shrunken log2 fold change
RRIRMRPPRLPRPRPRPSCFPRP | -0.145
RRIRTRPPRLPRPRPRPYMMPRP | 0.0264
RRIRYRPPRLPRPRPRPQARPRP | -0.0547
RRIRGRPPRLPRPRPRPTYKPRP | 0.937
RRIRARPPRLPRPRPRPQQYPRP | -0.203
RRIRRRPPRLPRPRPRPHMWPRP | -0.0704
RRIRRRPPRLPRPRPRPYIRPRP | -0.715
RRIRRRPPRLPRPRPRPIIRPRP | 0.0674
RRIRQRPPRLPRPRPRPICAPRP | 0.36
RRIRRRPPRLPRPRPRPMDNPRP | 0.158
RRIRVRPPRLPRPRPRPPKQPRP | 0.0106
RRIRCRPPRLPRPRPRPMGCPRP | -0.0697
RRIRVRPPRLPRPRPRPALTPRP | 0.117
RRIRKRPPRLPRPRPRPDFHPRP | -0.312
RRIRSRPPRLPRPRPRPRKMPRP | 0.207
RRIRTRPPRLPRPRPRPIDWPRP | 0.042
RRIRRRPPRLPRPRPRPRGTPRP | 0.216
RRIRTRPPRLPRPRPRPAGWPRP | 0.517
RRIRLRPPRLPRPRPRPHFRPRP | -0.102
RRIRNRPPRLPRPRPRPNCMPRP | -0.0251
RRIRLRPPRLPRPRPRPTRNPRP | 0.24
RRIRARPPRLPRPRPRPVHQPRP | 0.346
RRIRPRPPRLPRPRPRPILLPRP | -0.526
RRIRYRPPRLPRPRPRPAWGPRP | 0.0852
RRIRIRPPRLPRPRPRPDQYPRP | -0.0181
